From publication PMC6105367 (The FEBS journal, 2018)

Target: the molecule itself
Assay: negative-stain electron microscopy

B1: full-length zebrafish ASC, recombinant, His-NusA-GB1 tag cleaved off (natural protein, UniProt Q9I9N6 1-203, looked up)
chain: MAESFKEHLQEAFEDLGADNLRKFKSKLGDRRQEPRVTKSAIEKLKDEIDLADLMVGVFTSKDAVSVTVEILRAIKCNAVADDLLRNTGQSESKGALSDESKCASSKAVSKVAFSKVNFIDEHWKELIDRVNNVDPILDILRQKKVITNEDYCTIRNKETPQKKMRELLTGPITCAGNKGKEVLYDALRESNKFLMDDLEDAE
binding result: binds
